According to article PMC6936867 (2019):

molecular target: CAP256 pIgG; assay: SPR

Binder	Kd [µM]
FcγRIIa H131 (receptor) QAAAPPKAVLKLEPPWINVLQEDSVTLTCQGARSPESDSIQWFHNGNLIPTHTQPSYRFKANNNDSGEYTCQTGQTSLSDPVHLTVLSEWLVLQTPHLEFQEGETIMLRCHSWKDKPLVKVTFFQNGKSQKFSHLDPTFSIPQANHSHSGDYHCTGNIGYTLFSSKPVTITVQVPSMGSSSPMGIIVAVVIATAVAAIVAAVVALIYCRKKRISANSTDPVKAAQFEPPGRQMIAIRKRQLEETNNDYETADGGYMTLNPRAPTDDDKNIYLTLPPNDHVNSNN	5.8
FcγRIIb (receptor) TPAAPPKAVLKLEPQWINVLQEDSVTLTCRGTHSPESDSIQWFHNGNLIPTHTQPSYRFKANNNDSGEYTCQTGQTSLSDPVHLTVLSEWLVLQTPHLEFQEGETIVLRCHSWKDKPLVKVTFFQNGKSKKFSRSDPNFSIPQANHSHSGDYHCTGNIGYTLYSSKPVTITVQAPSSSPMGIIVAVVTGIAVAAIVAAVVALIYCRKKRISALPGYPECREMGETLPEKPANPTNPDEADKVGAENTITYSLLMHPDALEEPDDQNRI	5.3
FcγRIIa R131 (receptor) QAAAPPKAVLKLEPPWINVLQEDSVTLTCQGARSPESDSIQWFHNGNLIPTHTQPSYRFKANNNDSGEYTCQTGQTSLSDPVHLTVLSEWLVLQTPHLEFQEGETIMLRCHSWKDKPLVKVTFFQNGKSQKFSRLDPTFSIPQANHSHSGDYHCTGNIGYTLFSSKPVTITVQVPSMGSSSPMG	4.6
